In patent US20230398229A1, “ANTIBODY DRUG […] AGONISTS, COMBINATIONS AND METHODS OF USE” (Mersana Therapeutics, Inc., priority 2022, published 2023):

Experiments:
rat HER2 = rat HER2 (Rattus norvegicus, UniProt P06494); experiment: Binding of antibody to rat HER2
HER2 = HER2 (Homo sapiens, UniProt P04626); experiment: Inhibition of HER2 functional activity in vitro

rat HER2, sequence (P06494 23-1257): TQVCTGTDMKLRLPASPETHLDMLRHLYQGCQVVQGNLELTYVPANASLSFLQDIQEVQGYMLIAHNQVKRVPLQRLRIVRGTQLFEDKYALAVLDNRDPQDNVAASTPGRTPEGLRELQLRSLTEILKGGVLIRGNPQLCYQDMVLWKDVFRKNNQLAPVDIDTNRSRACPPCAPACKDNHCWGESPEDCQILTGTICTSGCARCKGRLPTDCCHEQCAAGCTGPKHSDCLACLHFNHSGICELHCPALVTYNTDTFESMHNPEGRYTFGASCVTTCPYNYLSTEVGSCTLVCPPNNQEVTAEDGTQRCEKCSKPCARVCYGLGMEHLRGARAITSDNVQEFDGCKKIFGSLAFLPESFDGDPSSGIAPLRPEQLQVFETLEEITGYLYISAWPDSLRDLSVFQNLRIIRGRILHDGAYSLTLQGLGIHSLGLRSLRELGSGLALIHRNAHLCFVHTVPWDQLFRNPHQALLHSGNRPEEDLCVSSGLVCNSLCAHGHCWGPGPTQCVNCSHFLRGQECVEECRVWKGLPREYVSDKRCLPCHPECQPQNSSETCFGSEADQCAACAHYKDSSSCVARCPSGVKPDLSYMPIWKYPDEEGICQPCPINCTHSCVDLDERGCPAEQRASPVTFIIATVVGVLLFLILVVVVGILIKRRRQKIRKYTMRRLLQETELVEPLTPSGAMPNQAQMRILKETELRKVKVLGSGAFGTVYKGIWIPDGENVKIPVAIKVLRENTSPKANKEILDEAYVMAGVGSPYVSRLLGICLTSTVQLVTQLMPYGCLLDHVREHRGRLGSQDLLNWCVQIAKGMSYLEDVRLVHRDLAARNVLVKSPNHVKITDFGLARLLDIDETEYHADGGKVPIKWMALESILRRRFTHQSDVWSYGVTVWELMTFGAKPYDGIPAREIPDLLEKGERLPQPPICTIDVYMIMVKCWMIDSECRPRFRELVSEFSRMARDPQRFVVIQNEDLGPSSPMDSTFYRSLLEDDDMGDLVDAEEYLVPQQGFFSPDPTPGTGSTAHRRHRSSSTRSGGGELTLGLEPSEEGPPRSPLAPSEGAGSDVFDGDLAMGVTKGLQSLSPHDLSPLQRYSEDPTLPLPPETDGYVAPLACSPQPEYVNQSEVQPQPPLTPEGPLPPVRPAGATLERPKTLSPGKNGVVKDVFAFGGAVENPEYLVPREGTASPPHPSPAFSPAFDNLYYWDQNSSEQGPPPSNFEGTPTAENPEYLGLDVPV

## XMT-1519: anti-Her2 antibody disclosed in U.S. Pat. No. 9,555,112 and 9,738,720
Rat HER2
  Binding to rat HER2: does not bind
HER2
  Functional activity of HER2: inhibit the functional activity of HER2
